From publication PMC5514376 (The Journal of investigative dermatology, 2016) come the findings set out here.

The series deals with the molecule itself. The series can be described thus: crystal structure.

B1: keratin 1-keratin 10 helix 2B heterodimer (K1-K10-2B) (complex, human)
chain 1: ESLYQSKYEELQITAGRHGDSVRNSKIEISELNRVIQRLRSEIDNVKKQISNLQQSISDAEQRGENALKDAKNKLNDLEDALQQAKEDLARLLRDYQELMNTKLALDLEIATYRTLLEGE
chain 2: EAWFNEKSKELTTEIDNNIEQISSYKSEITELRRNVQALEIELQSQLALKQSLEASLAETEGRYCVQLSQIQAQISALEEQLQQIRAETECQNTEYQQLLDIKIRLENEIQTYRSLLEGE
As for B1, the binding result was “binds”.
